Reference: patent publication US20240398804A1 (Dana-Farber, published 2024)

Tests used:
[1] = target: SRC (endogenous, colon cancer cell lines) (UniProt P12931 2-536); experiment: YAP1 immunoprecipitation from colon cancer cell lysate (SW480), immunoblot
Experimental: (§1) The indicated colon cancer cell lines were infected with shRNAs targeting YES1 and proliferation (A) or anchorage independent growth (B) was assessed. The results were normalized to cells infected with a control shRNA targeting LacZ. (C) Subcutaneous HCT116 tumors expressing a doxycycline inducible YES1 shRNA were implanted into the cecum of nude mice and after 48 h were treated or not with doxycycline. Tumors were extracted three weeks post doxycycline treatment. (D) YES1 protein levels of tumors in (C). (E) YAP1 was immunoprecipitated from SW480 lystaes and following immunobloting the membrane was stained with the indicated antibodies. […] Following V5 IP the membrane was blotted with a phosphotyrosine antibody. […] (H) Proliferation or anchorage independent growth (I) of Hutu80 cell lines expressing YAP1 Y357F and infected with shRNAs targeting YAP1. (J) YAP1 protein levels of cells in (H) and (I).

FYN = FYN (UniProt P06241 2-537, limits assumed); experiment: as above
Experimental: as §1

Sequence of FYN (P06241 2-537 limits assumed): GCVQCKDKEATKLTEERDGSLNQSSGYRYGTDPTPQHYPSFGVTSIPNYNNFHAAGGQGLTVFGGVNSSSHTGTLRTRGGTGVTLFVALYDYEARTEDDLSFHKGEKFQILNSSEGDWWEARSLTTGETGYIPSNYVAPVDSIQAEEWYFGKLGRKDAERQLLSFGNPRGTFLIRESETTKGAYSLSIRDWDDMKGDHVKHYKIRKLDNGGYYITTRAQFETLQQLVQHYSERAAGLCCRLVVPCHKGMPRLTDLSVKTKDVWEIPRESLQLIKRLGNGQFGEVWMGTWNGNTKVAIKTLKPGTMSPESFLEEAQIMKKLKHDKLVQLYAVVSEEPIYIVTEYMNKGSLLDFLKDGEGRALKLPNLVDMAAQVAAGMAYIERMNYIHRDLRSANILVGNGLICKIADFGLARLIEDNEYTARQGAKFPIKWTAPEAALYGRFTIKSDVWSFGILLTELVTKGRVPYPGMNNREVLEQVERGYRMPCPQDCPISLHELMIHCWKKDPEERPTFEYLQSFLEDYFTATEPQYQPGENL

B1: YAP1 (65 kd Yes-associated protein) (other, UniProt P46937-3 1-454, looked up)
chain: MDPGQQPPPQPAPQGQGQPPSQPPQGQGPPSGPGQPAPAATQAAPQAPPAGHQIVHVRGDSETDLEALFNAVMNPKTANVPQTVPMRLRKLPDSFFKPPEPKSHSRQASTDAGTAGALTPQHVRAHSSPASLQLGAVSPGTLTPTGVVSGPAATPTAQHLRQSSFEIPDDVPLPAGWEMAKTSSGQRYFLNHIDQTTTWQDPRKAMLSQMNVTAPTSPPVQQNMMNSASAMNQRISQSAPVKQPPPLAPQSPQGGVMGGSNSNQQQQMRLQQLQMEKERLRLKQQELLRQVRPQELALRSQLPTLEQDGGTQNPVSSPGMSQELRTMTTNSSDPFLNSGTYHSRDESTDSGLSMSSYSVPRTPDDFLNSVDEMDTGDTINQSTLPSQQNRFPDYLEAIPGTNVDLGTLEGDGMNIEGEELMPSLQEALSSDILNDMESVLAATKLDKESFLTWL
notes: Endogenous protein in the co-immunoprecipitations from colon cancer cell lysates; also called WT YAP1
B1: no binding [1]; no binding (FYN).
